Here are results for one molecule from patent US11433139B2, “Peptide vaccines against interleukin-31” (Zoetis Services LLC, priority 2018, dated 2022).

Experiment [1] deals with feline IL-31. Nature of the experiment: Inhibition of feline IL-31 induced pSTAT3 signaling in feline FCWF4 macrophage-like cells. In kind it is cell-based. As to conditions: 0.2 μg/mL feline IL-31, pSTAT3, FCWF4 cells (FIG. 3). A digest of the protocol:
(§1)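 DH-82 cells primed with canine IFN-γ 10 ng/mL for 24 h, FCWF4 with feline IFN-γ 125 ng/mL for 96 h, then serum-starved 2 h. mAb pre-incubated 1 h with 1 μg/mL canine or 0.2 μg/mL feline IL-31, cells stimulated 5 min; pSTAT3 by AlphaLISA SureFire, IC50 as half-maximal signalling reduction.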

Another experiment has as its system wildtype feline IL-31. Nature of the experiment: Biacore binding, single test concentration of antibody, feline IL-31 surface. As for the experimental part:
(§2) For the indirect ELISA, binding (ELISA OD) to wildtype feline IL-31 and a feline IL-31 15H05 mutant which had mutations in the monoclonal antibody 15H05 epitope region was assessed. To confirm binding, biacore analysis was performed using canine, feline, equine, human, the feline 15H05 mutant, and feline 11E12 mutant IL-31 proteins as surfaces and a single test concentration of antibody. The feline IL-31 11E12 mutant had mutations in the monoclonal antibody 11E12 epitope region.
For the indirect ELISA method, antibody binding to wildtype and feline IL-31 15H05 mutant proteins was assessed. […] In comparison, the 11E12 antibody bound to the wild-type feline IL-31 and its binding was not impacted by the mutations in the 15H05 epitope region as evidenced by the data in FIG. 4. To confirm binding, biacore analysis was performed using canine, feline, equine, human, feline 15H05 mutant, and feline 11E12 mutant IL-31 proteins as surfaces and a single test concentration of antibody. Similar to ELISA observations, all antibodies tested bound to wildtype feline IL-31. In agreement with the data described above in this section, mouse antibodies 11 E12 and 15H05 both bound to canine and feline IL-31 surfaces. […] From this group of nine fully canine antibodies, only ZIL1 and ZIL9 cross-reacted with equine IL-31. […]

In experiment [2] the test system is feline IL-31. Nature of the experiment: Competition binding assessment using Biacore, feline IL-31 surface. The following applies: sequential addition of 15H05 and 11E12, Biacore. As for the experimental part: To further characterize the IL-31 epitopes bound by mAbs 15H05 and 11 E12, blocking experiments were performed using biacore where the surface containing the IL-31 protein was generated followed by sequential addition of antibodies. FIGS. 7A and 7B show the relative binding of each antibody to IL-31 following capture of 11E12 or 15H05. The columns labeled HBS-EP (assay buffer) indicate the maximum signal obtained from each antibody binding to the IL-31 surface alone without competition. […] The sensograms related to FIG. 7A show the disassociation kinetics of both antibodies are very slow on this newly formed biacore surface therefore no additional occupation of binding sites can occur with addition of the same antibody (data not shown).
Binding of additional antibody in the presence of the same antibody is a result of the increased off rate due to the poorer quality of the surface used. Increased off rates can be seen and compared to the KD values from newly formed feline IL-31 surfaces in FIG. 2.
Target sequence in this assay (as listed by the source): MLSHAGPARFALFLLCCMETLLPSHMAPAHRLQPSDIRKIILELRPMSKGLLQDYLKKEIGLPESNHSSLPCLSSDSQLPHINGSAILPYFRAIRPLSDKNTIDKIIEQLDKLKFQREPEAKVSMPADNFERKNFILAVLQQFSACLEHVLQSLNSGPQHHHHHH
On the technique in general: In SPR one partner is held on a chip, and binding of the other changes the refractive index at the surface.

Experiment [3] concerns feline 11E12 mutant IL-31. Nature of the experiment: Biacore binding, single test concentration of antibody, feline 11E12 mutant IL-31 surface. How it is done: as §2
Chain of feline 11E12 mutant IL-31 (as listed by the source, stated change not applied): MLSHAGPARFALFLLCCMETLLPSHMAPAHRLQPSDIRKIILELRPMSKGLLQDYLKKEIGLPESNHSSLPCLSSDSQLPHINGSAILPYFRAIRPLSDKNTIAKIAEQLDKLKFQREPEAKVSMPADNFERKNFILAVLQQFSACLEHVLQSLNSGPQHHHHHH
(§3) For the indirect ELISA method, antibody binding to wildtype and feline IL-31 15H05 mutant proteins was assessed. […] In comparison, the 11E12 antibody bound to the wild-type feline IL-31 and its binding was not impacted by the mutations in the 15H05 epitope region as evidenced by the data in FIG. 4. To confirm binding, biacore analysis was performed using canine, feline, equine, human, feline 15H05 mutant, and feline 11E12 mutant IL-31 proteins as surfaces and a single test concentration of antibody. Similar to ELISA observations, all antibodies tested bound to wildtype feline IL-31. In agreement with the data described above in this section, mouse antibodies 11 E12 and 15H05 both bound to canine and feline IL-31 surfaces. […] From this group of nine fully canine antibodies, only ZIL1 and ZIL9 cross-reacted with equine IL-31. Of note, antibody 15H05 was the only one of all assayed herein that bound to canine, feline, and equine IL-31 indicating some level of epitope conservation across the three species. In contrast, none of the antibodies described herein bound to human IL-31. Additional biacore surfaces were used to verify ELISA observations showing differential binding of antibodies to wildtype feline IL-31 and two proteins with mutations in the 15H05 (15H05 mutant) or 11 E12 (11E12 mutant) epitopes. […] Differing results can be attributed to differences in the two assay methodologies.

The subject of experiment [4] is feline IL-31 11E12 mutant. Nature of the experiment: Indirect ELISA, binding to feline IL-31 11E12 mutant. The following applies: compared with wildtype. An excerpt:
To determine the impact of mAbs 11E12 and 15H05 ability to bind these mutant forms of feline IL-31, an indirect ELISA was run using the mutants directly coated on to an immunoassay plate. […] The minor attenuation of mAb 15H05s binding to the 11E12 mutant is likely due to translational effects of the mutations from movement of the two front helices effecting the 15H05 binding site. The mutations designed to affect mAb 15H05s binding (mutant 15H05) show a complete loss of mAb 1505s ability to bind this IL-31 mutant by ELISA. Unlike the 11E12 mutant, the changes in the random coil recognized by mAb 15H05 (mutant 15H05) had no impact on mAb 11E12 binding further supporting the distinction between the two epitopes (FIG. 6C).
On the technique in general: In an ELISA, binding on a coated surface is turned into a signal by an enzyme label.

For experiment [5], the system named is feline IL-31. Nature of the experiment: Inhibition of feline IL-31 induced pSTAT3 signaling in canine DH-82 cells. The class given is cell-based. As to conditions: feline IL-31, pSTAT3, canine DH82 cells (FIG. 3). A digest of the protocol: as §1
Target sequence in this assay (as listed by the source): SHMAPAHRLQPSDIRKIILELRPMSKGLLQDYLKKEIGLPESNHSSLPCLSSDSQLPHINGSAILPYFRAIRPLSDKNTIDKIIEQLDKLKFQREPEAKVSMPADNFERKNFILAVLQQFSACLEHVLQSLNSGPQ
The next experiment deals with canine IL-31. Nature of the experiment: Biacore binding, single test concentration of antibody, canine IL-31 surface. As for the experimental part:
as §2, §3

Chain of wildtype feline IL-31 (as listed by the source): as the sequence (as listed by the source, stated change not applied) above, with A104D, A107I counted along it
Chain of feline IL-31 11E12 mutant (as listed by the source, change not shown): as the sequence (as listed by the source, stated change not applied) above
Chain of canine IL-31 (as listed by the source): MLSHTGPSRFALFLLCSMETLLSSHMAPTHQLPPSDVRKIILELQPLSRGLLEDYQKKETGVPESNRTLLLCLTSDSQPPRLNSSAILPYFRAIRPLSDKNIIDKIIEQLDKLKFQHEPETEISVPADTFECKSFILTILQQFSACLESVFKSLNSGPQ

B1: 15H05: mouse anti IL-31 monoclonal antibody, VH SEQ ID NO: 67, VL SEQ ID NO: 69 (antibody, listed as Mus musculus, V domains shown)
VH: QVQLQQSAAELARPGASVKMSCKTSGYTFTSYTIHWIKQRPGQGLEWIGNINPTSGYTENNQRFKDKTTLTVDRSSNTAYLQLHSLTSEDSAVYFCARWGFKYDGEWSFDVWGAGTTVTVSS
VL: DIQMNQSPSSLSASLGDTITVTCRASQGISIWLSWYQQKPGNIPKVLINKASNLHIGVPPRFSGSGSGTHFTLTITSLQPEDIATYYCLQSQTYPLTFGGGTKLEIN
Consider B1, for which the “potency (IC50) against feline IL-31 in feline FCWF4 cells” value with feline IL-31 [1] was “slight increase in IC50”. The “binding to wildtype feline IL-31 (Biacore)” value in the experiment with wildtype feline IL-31 is reported as “bound”. The “competition binding on feline IL-31” value in the experiment with feline IL-31 [2] is on record as “no overlap in the epitope recognized”. The “binding to feline 11E12 mutant IL-31 (Biacore)” value in experiment [3] is given as “retained binding”. In experiment [4], the “binding to feline IL-31 11E12 mutant (ELISA)” value is reported as “partially attenuated”. Besides, in the experiment on feline IL-31 [5], the “potency (IC50) against feline IL-31 in canine DH82 cells” value is given as “comparable”. Besides, in the experiment with canine IL-31, the “binding to canine IL-31 (Biacore)” value is on record as “bound”.
